# Key:
# [1] = biological target: AbBphP1 holoprotein (bacteriophytochrome 1 of Azospirillum brasilense Sp7, biliverdin-bound) (Azospirillum brasilense Sp7); assay: cross-linking
# [2] = biological target: AbBphP1 holoprotein (bacteriophytochrome 1 of Azospirillum brasilense Sp7, biliverdin-bound) (Azospirillum brasilense Sp7); assay: SEC
substance,measurement,setting,value
"AbBphP1 holoprotein (bacteriophytochrome 1 of Azospirillum brasilense Sp7, biliverdin-bound) (natural protein)",stoichiometry N,[1],2
same,stoichiometry N,[2],2

# Source: PMC3503143
